Changes are numbered by the printed parent chain. Positions of bridges follow the written chain, without caps; N, C: chain ends. No end group written: not given here.
B1: 18Arg25,28Pro-h-Amylin (peptide)
peptide: KCNTATCATQRLANFLVRSSNNFGPILPSTNVGSNTY
modifications: 2,7-disulfide; made on methylbenzhydrylamine resin (C-terminal amide not printed in so many words)
B2: 25Pro26Val28,29Pro-h-Amylin (peptide)
peptide: B1 peptide with R18H, I26V, S29P
modifications: 2,7-disulfide; made on methylbenzhydrylamine resin (C-terminal amide not printed in so many words)
B3: 18Arg25,28,29Pro-h-Amylin (peptide)
peptide: B1 peptide with S29P
modifications: 2,7-disulfide; made on methylbenzhydrylamine resin (C-terminal amide not printed in so many words)
B4: des-1Lys25,28,29Pro-h-Amylin (peptide)
peptide: CNTATCATQRLANFLVHSSNNFGPILPPTNVGSNTY
modifications: 2,7-disulfide; made on methylbenzhydrylamine resin (C-terminal amide not printed in so many words)
B5: des-1Lys18Arg25,28Pro-h-Amylin (peptide)
peptide: B4 peptide with H17R, P28S
modifications: 2,7-disulfide; made on methylbenzhydrylamine resin (C-terminal amide not printed in so many words)
B6: des-1Lys18Arg25,28,29Pro-h-Amylin (peptide)
peptide: B4 peptide with H17R
modifications: 2,7-disulfide; made on methylbenzhydrylamine resin (C-terminal amide not printed in so many words)

The binders below were run against amylin receptor (rat basal forebrain membranes containing the nucleus accumbens and surrounding regions) (rat) (assay: competition with 125I-Bolton-Hunter rat amylin on rat basal forebrain membranes, filtration).
KCNTATCATQRLANFLVHSSNNFGPILPSTNVGSNTY (peptide, from a related filing) [25,28Pro-h-Amylin] gave an IC50 of 0.026 nM.
With B1 the IC50 was 0.032 nM.
Binder KDNTATKATQRLANFLVHSSNNFGAILSSTNVGSNTY (peptide, from a related filing, lactam 2-7; ends not checked) [2,7Cyclo-[2Asp,7Lys]-h-Amylin] has an IC50 of 0.31 nM.
B2 was tested, and the IC50 was 0.018 nM.
Binder B3 has an IC50 of 0.021 nM.
CNTATCATQRLANFLVHSSNNFGPILPSTNVGSNTY (peptide, from a related filing) [des-1Lys25,28Pro-h-Amylin] gave an IC50 of 0.085 nM.
Binder B4 has an IC50 of 0.014 nM.
Binder B5 has an IC50 of 0.082 nM.
B6 gave an IC50 of 0.021 nM.
